Like-named read-outs stand apart in the source and are kept apart here. Positions of bridges follow the written chain, without caps; N, C: chain ends. Residues, ends and D or L forms follow the SMILES beside them. *: point of attachment. DOTA = O=C(O)CN1CCN(CC(=O)O)CCN(CC(=O)*)CCN(CC(=O)O)CC1

The target of one data set is αvβ3 integrin (Homo sapiens, UniProt P05106+P06756). Briefly: Yeast-displayed peptide binding to soluble αvβ3 integrin, flow cytometry. The note with it: yeast-displayed peptides. Here is the method: The yeast display construct shown in FIG. 1A has the general orientation: Aga2-HA-engineered knottin—c-myc epitope, with the c-myc epitope at the carboxy terminus of the peptide. […] Bound integrin is detected with an anti-integrin antibody, labeled with FITC.
αvβ3 integrin, sequence (P06756 31-889 limits assumed): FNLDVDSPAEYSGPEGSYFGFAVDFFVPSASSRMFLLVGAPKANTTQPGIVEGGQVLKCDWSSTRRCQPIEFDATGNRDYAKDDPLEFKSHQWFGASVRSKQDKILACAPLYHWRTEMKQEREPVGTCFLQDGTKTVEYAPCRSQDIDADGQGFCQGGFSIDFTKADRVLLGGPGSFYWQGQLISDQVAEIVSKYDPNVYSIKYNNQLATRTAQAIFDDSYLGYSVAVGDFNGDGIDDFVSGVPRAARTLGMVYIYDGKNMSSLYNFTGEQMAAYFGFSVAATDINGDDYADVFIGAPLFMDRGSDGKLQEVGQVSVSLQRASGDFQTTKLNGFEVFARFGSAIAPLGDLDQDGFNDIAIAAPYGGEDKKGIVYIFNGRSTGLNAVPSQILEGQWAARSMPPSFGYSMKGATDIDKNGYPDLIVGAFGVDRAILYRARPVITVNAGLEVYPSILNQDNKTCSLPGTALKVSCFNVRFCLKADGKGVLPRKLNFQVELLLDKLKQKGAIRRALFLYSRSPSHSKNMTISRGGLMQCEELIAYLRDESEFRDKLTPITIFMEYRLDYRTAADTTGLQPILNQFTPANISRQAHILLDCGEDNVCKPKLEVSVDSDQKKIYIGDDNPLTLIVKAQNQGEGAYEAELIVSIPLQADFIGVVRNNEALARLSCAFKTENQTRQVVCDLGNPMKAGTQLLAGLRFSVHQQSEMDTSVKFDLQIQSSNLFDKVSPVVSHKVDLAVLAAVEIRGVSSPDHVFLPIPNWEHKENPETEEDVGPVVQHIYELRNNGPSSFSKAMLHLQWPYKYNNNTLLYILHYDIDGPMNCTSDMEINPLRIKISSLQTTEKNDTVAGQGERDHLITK
αvβ3 integrin, sequence (P06756 891-1048 partner limits assumed): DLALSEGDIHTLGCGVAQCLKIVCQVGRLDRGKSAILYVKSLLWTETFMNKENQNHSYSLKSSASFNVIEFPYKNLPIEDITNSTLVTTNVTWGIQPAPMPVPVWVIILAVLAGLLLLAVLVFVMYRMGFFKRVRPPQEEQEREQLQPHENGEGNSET
αvβ3 integrin, sequence (P05106 27-788): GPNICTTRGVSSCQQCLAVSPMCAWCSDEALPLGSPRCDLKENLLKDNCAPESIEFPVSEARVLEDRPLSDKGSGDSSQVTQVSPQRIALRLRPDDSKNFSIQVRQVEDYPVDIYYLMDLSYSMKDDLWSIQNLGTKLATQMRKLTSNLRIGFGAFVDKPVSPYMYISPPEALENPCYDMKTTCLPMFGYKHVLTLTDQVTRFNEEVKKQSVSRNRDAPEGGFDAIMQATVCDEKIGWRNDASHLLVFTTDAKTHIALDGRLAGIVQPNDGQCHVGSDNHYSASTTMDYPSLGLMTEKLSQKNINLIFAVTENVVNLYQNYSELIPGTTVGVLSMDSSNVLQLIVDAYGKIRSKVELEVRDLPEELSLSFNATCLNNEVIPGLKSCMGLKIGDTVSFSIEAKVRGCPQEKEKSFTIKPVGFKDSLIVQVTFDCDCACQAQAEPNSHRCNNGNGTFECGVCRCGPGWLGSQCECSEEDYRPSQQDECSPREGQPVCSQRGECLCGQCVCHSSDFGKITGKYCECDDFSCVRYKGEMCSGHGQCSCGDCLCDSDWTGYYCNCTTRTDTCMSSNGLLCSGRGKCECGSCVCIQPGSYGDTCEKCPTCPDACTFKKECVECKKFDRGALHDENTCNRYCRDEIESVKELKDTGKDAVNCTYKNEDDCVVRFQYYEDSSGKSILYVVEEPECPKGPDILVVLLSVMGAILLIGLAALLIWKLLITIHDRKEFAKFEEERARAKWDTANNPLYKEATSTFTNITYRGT
Below is a typical protocol to label a yeast library samples for sorting by flow cytometry (FACS): • 1. Want 2×10^6 cells, OD600 of […] • 2. Add 1 mL PBS/BSA (phosphate buffered saline containing 1 mg/mL bovine serum albumin) to wash cells • 3. Spin down cells 3 min at 8000 RPM • 4. Remove supernatant using vacuum • 5. Re-suspend in 40 μL PBS/BSA containing proper amount of integrin (100 nM [2.5 μL of stock αvβ3]; no anti-cmyc at this point) • 6. Incubate for 1.5 h at r.t (w/tumbling) • 7. Add 1:250 dilution of (chick anti-cmyc) to labeling solution • 8. […] Incubate 1 h at 4° C. (w/tumbling) • 10. Keep on ice after this step. • 11. Spin down cells 3 min at 8000 RPM, 4° C. and vacuum supernatant • 12. Repeat wash steps 2-4 • 13. Re-suspend in 40 μL PBS/BSA containing proper amount of secondary labels (secondary labeling is simultaneous) • i. Anti-integrin Ab (FITC conj): 1:25 dilution+Anti-chick (Alexa 555): 1:100 dilution • ii. Positive control: Anti-chick (Alexa 555): 1:100 dilution (for FACS compensation) • iii. Positive control: Anti-chick (Alexa 488): 1:100 dilution (for FACS compensation) • 14. Incubate on ice 30 min and keep in dark (lid on ice bucket) • 15. Spin down cells at 3 min at 8000 RPM, 4° C. and vacuum supernatant • 16. Repeat steps 2-4: Add 1 mL PBS/BSA, pellet cells, vacuum supernatant • 17. Leave pelleted cells on ice until use. Fluorescent Cell Sorting
Commercially available flow cytometers can measure fluorescence emissions at the single-cell level at four or more wavelengths, at a rate of approximately 50,000 cells per second (Ashcroft and Lopez, 2000). Typical flow cytometry data are shown in FIG. 4-7, in which yeast have been labeled with two different color fluorescent probes to measure protein expression levels and bound soluble ligand (in this case integrin receptor). A ‘diagonal’ population of cells results due to variation in protein expression levels on a per cell basis: cells that express more protein will bind more ligand. The equilibrium binding constant (Kd) can be determined by titration of soluble ligand, and the dissociation rate constant (koff) can be measured through competition binding of unlabeled ligand. With yeast, a monodispersity of tethered proteins exists over the cell surface, and soluble ligand are used for binding and testing, such that avidity effects are not observed, unlike other display methods using immobilized ligands. To date, the properties of most proteins expressed on the yeast cell surface mimic what is seen in solution in terms of stability and binding affinity (Bader et al., 2000; Feldhaus et al., 2003; Holler et al., 2000; VanAntwerp and Wittrup, 2000). See, also, Weaver-Feldhaus et al., “Directed evolution for the development of conformation-specific affinity reagents using yeast display,” Protein Engineering Design and Selection Sep. 26, 2005 18(11):527-536.
Cell sorting was carried out on a FACSVantage (BD Biosciences) multiparameter laser flow cytometer and cell sorter. Before sorting, fluorescent staining was carried out as described above, so that analysis of integrin binding and c-myc expression levels were detected, as described above. […]

Data set [1] in a line: MicroPET imaging and biodistribution of radiolabeled peptides in U87MG tumor-bearing mice. The note with it: female, athymic nude (nu/nu), mouse, in vivo, iv, total radioactivity; for tissue uptake at 0.5 h: 0.5 h post injection; for tissue uptake at 2 h: 2 h post injection; for tissue uptake at 4 h: 4 h post injection; for tissue uptake at 25 h: 25 h post injection. Format: in vivo, mouse. The method, then:
(§1) MicroPET imaging of tumor-bearing mice is performed on a microPET R4 rodent model scanner (Concorde Microsystems Inc, Knoxyille, Tenn.). U87MG tumor bearing mice are injected with PET imaging agent via the tail vein. At various times post injection, the mice are anesthetized with 2% isoflurane, and 10 min static scans are obtained. Images are reconstructed by a two-dimensional ordered expectation maximum subset algorithm as previously described. Regions of interest (ROI) are drawn over the tumor on decay corrected whole body images and ROI derived % injected dose per gram of tissue is determined. Statistical analysis is performed using the student's t-test for unpaired data. A 95% confidence level is used to determine statistical significance.
(§2) Female athymic mice bearing U87MG tumors were injected with 80-150 μCi of ^64Cu-DOTA-knottin 2.5D or 7-9 μCi of [^18F]-FB-E[knottin 2.5D]. Static images were taken at various timepoints post injection using a microPET R4 rodent model scanner (Concorde Microsystems Inc, Knoxyille, Tenn.). […] Uptake was also observed in the kidney as both probes cleared through the bladder.
(§3) Mice are sacrificed by exanguinations at various time points postinjection. Blood, tumor and the major organs and tissues are collected, wet-weighed and measured in a γ-counter. The % injected dose per gram is determined for each sample. For each mouse, radioactivity of the tissue samples is calibrated against a known aliquot of the injectate. Values are reported as the mean±standard deviation.
(§4) The following Table 10 quantifies the ^64Cu-DOTA knottin uptake by direct tissue sampling of the mice up to 24 hours post injection and is reported in % ID (percent injected dose)/gram. Similar results were obtained with [^18F]-FB-E[knottin 2.5D].
(§5) A U87MG glioblastoma xenograft mouse model was used. U87MG cells were maintained at 37° C. in a humidified atmosphere containing 5% CO2 in Dulbecco's modified eagle medium, 10% heat-inactivated fetal bovine serum, and penicillin-streptomycin (all from Invitrogen). Animal procedures were carried out according to a protocol by Stanford University Administrative Panels on Laboratory Animal Care. Female athymic nude mice (nu/nu), obtained at 4-6 weeks of age (Charles River Laboratories, Inc.), were injected subcutaneously in the right or left shoulder with 2×10^7 U87MG glioblastoma cells suspended in 100 μL of PBS. Mice were used for in vivo imaging studies when their tumors reached approximately 8 to 10 millimeters in diameter.
(§6) U87MG tumor-bearing mice (n=3 or more for each probe) were injected with ˜100 μCi of ^64Cu-DOTA-conjugated peptides via the tail vein and imaged with a microPET R4 rodent model scanner (Siemens Medical) using 3 or 5 min static scans. […] Images were reconstructed by a two dimensional ordered expectation maximum subset algorithm and calibrated as previously described (Wu, Y, Zhang, X, Xiong, Z, et al. microPET imaging of glioma integrin {alpha}v{beta}3 expression using (64)Cu-labeled tetrameric RGD peptide. J Nucl Med 2005; 46:1707-18). ROIs were drawn over the tumor on decay-corrected whole body images using ASIPro VM software (Siemens Medical). The mean counts per pixel per minute were obtained from the ROI and converted to counts per milliliter per minute with a calibration constant. ROIs were converted to counts/g/min, and % ID/g values were determined assuming a tissue density of 1 g/mL. No attenuation correction was performed.

A further data set has as its system U87MG tumor. The data set is described as above. Particulars: radiolabeled peptides, U87MG tumor-bearing mice. In kind it is in vivo, mouse. The method, then: as §1, §2, §3, §4, §5, §6
[2] abbreviates: direct tissue sampling, read-out: Kidney uptake, mean.
Setting [3] is: direct tissue sampling, read-out: Liver uptake, mean.
Where [4] appears, read: direct tissue sampling, read-out: Muscle uptake, mean.
[5] abbreviates: direct tissue sampling, read-out: Tumor uptake, mean.

“GCVRLHESCLGQQVPCCDPCATCYCRGDCYCRKLGTAMNPCSRT [RGD-AgRP#1]”: the “integrin binding compared in words” value with αvβ3 integrin was “RGD-AgRP #1<#2, <#3”.

“GCVRLHESCLGQQVPCCDPCATCYCTGRGDSCYCRKLGTAMNPCSRT [RGD-AgRP#2]”: the “integrin binding compared in words” value with αvβ3 integrin is “RGD-AgRP #1<#2, <#3”.

For the compound `CC(C)[C@@H]1NC(=O)[C@@H]2CSSC[C@H](NC(=O)CNC(=O)CN3CCN(CC(=O)O)CCN(CC(=O)O)CCN(CC(=O)O)CC3)C(=O)N3CCC[C@H]3C(=O)N[C@@H](CCC(N)=O)C(=O)NCC(=O)N[C@@H](CCCNC(=N)N)C(=O)NCC(=O)N[C@@H](CC(=O)O)C(=O)N[C@@H](Cc3c[nH]c4ccccc34)C(=O)N[C@@H](C)C(=O)N3CCC[C@H]3C(=O)N[C@@H]([C@@H](C)O)C(=O)N[C@@H](CO)C(=O)N[C@H]3CSSC[C@H](NC1=O)C(=O)NCC(=O)N1CCC[C@H]1C(=O)N[C@@H](CC(N)=O)C(=O)NCC(=O)N[C@@H](Cc1ccccc1)C(=O)N[C@H](C(=O)NCC(=O)O)CSSC[C@H](NC(=O)[C@H](CC(=O)O)NC(=O)[C@H](CO)NC(=O)[C@H](CC(=O)O)NC(=O)[C@H](CCC(N)=O)NC(=O)[C@H](CO)NC3=O)C(=O)N[C@@H](CCCNC(=N)N)C(=O)N[C@@H](C)C(=O)NCC(=O)N2` [^64Cu-DOTA-knottin 2.5D, metal not drawn] ({DOTA}-GCPQGRGDWAPTSCSQDSDCRAGCVCGPNGFCG-OH; disulfide 2-24, 14-26, 20-32; C-terminus assumed), the tissue uptake at 0.5 h worked out at 7.26 %ID/g in data set [1] (setting [2]), 1.39 %ID/g in data set [1] (setting [3]), 0.45 %ID/g in data set [1] (setting [4]) and 4.94 %ID/g in data set [1] (setting [5]). Besides, the tissue uptake at 1 h in data set [1] (1 h post injection, direct tissue sampling, read-out: Kidney uptake, mean) was 4.06 %ID/g; in data set [1] (1 h post injection, direct tissue sampling, read-out: Liver uptake, mean), 1.29 %ID/g; in data set [1] (1 h post injection, direct tissue sampling, read-out: Muscle uptake, mean), 0.28 %ID/g; in data set [1] (1 h post injection, direct tissue sampling, read-out: Tumor uptake, mean), 4.47 %ID/g. Further, the tissue uptake at 2 h in data set [1] (setting [2]) is 3.45 %ID/g; in data set [1] (setting [3]) it was 0.98 %ID/g; in data set [1] (setting [4]) it was 0.07 %ID/g; in data set [1] (setting [5]), 2.89 %ID/g. The tissue uptake at 4 h in data set [1] (setting [2]) was 3.26 %ID/g; in data set [1] (setting [3]), 0.92 %ID/g; in data set [1] (setting [4]) it was 0.06 %ID/g; in data set [1] (setting [5]), 2.24 %ID/g. Further, the tissue uptake at 25 h in data set [1] (setting [2]) was determined as 1.75 %ID/g; in data set [1] (setting [3]), 0.53 %ID/g; in data set [1] (setting [4]), 0.03 %ID/g; in data set [1] (setting [5]) it was 1.31 %ID/g. Also, in the data set on U87MG tumor, the “PET tumor targeting / imaging signal, in words” value is given as “clearly targeted the U87MG tumor”.

For the compound “RGD-EETI#2: EETI-II scaffold with native fibronectin RGD loop, RGD at insert positions 3-5, SEQ ID NO: 20 (GCTGRGDSPASSKCKQDSDCLAGCVCGPNGFCG)”, in the data set with αvβ3 integrin, the “integrin binding compared in words” value is given as “approximately half the affinity of RGD-EETI#3”.

In the case of `N=C(N)NCCC[C@@H]1NC(=O)[C@H](CCCCN)NC(=O)[C@@H](Cc2ccc(O)cc2)NC(=O)[C@H](CC(=O)O)NC(=O)CNC1=O` [c(RGDyK), reference compound], the tissue uptake at 1 h in data set [1] (Tumor uptake) was 2.32 ± 0.55 %ID/g; in data set [1] (non-specific liver uptake), about 4 %ID/g.

Turning to “CVRLHESCLGQQVPCCDPCATCYCTGRGDSPASCYCRKLGTAMNPCSRT [RGD-AgRP#3]”, in the data set with αvβ3 integrin, the “integrin binding compared in words” value is “RGD-AgRP #1<#2, <#3”.

For the origin of these results see US9265845B2, “Imaging methods using engineered integrin binding peptides” (The Board of Trustees of the Leland Stanford Junior …, priority 2006, dated 2016).
